Measured values from the supplement of paper PMC9732359.
± gives the uncertainty stated by the source.

Test: protein stability index of a GFP-peptide fusion (yeast GPS) (PSI 1-4); higher = more stable; sorted into four equal gates, so the index is relative within each strain
Conditions: pdr5∆
Outline: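 Tiled yeast protein peptides of 17 residues were each joined downstream of GFP, on plasmids that also express Cherry. The pooled library was maintained in yeast, and mid-log cultures in leucine-free medium were sorted into four equal gates on the GFP/Cherry ratio. Plasmids from every gate were amplified by PCR and sequenced on Illumina, with barcodes linking reads to strains. The protein stability index of a peptide is its gate-number-weighted read frequency summed over the gates.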

RSSSASNEFVPNTSDNN [SWI1] gave a protein stability index of 2.77 ± 0.09.

Same assay, conditions: san1∆

Compared with QQQQQQQQQQQNNSTGS [SSN2], QQQRRQLTPQQQQLVNQ [GAL11] is higher in protein stability index: 2.52 ± 0.11 for the first, 2.8 ± 0.038 for the second.

First: QQVVCIFSYGPHIQKML [POP6]
Second: QRKEIKDRISSCSSKEK [SMC4]
The protein stability index of the first is lower: 1.74 ± 0.11 for the first, 2.49 ± 0.12 for the second.

Compared with QRKNIQSLELMIYDDAH [BRR2], QRLVTPQRLQRKRHQRA [RPS6A] is higher in protein stability index: 2.54 ± 0.066 for the first, 3.23 ± 0.039 for the second.

First: QRQYKVQLLLHINSILL [SNF11]
Second: QRTAQDRVQQDSEDEDS [YML031W/NDC1]
The protein stability index of the first is lower: 1.89 ± 0.098 for the first, 3.24 ± 0.081 for the second.

First: QSQQAQPSDVMFNDLNS [MED2]
Second: QSSFAGTWSAKEAVFKS [FAS2]
The protein stability index of the first is higher: 3.44 ± 0.063 for the first, 3.18 ± 0.054 for the second.

Compared with QSSSSTRSHEYGRKSFR [REC8], QSTQTDLEKTERIVVSY [SMC2] is lower in protein stability index: 2.84 ± 0.12 for the first, 2.56 ± 0.058 for the second.

Compared with QTARKSTGGKAPRKQLA [HHT1], QTDAIKSDEAKWKPVLS [RPN5] is higher in protein stability index: 3.05 ± 0.072 for the first, 3.27 ± 0.075 for the second.

QTGTRRNSKLLNTKSIQ [MCD1] and QTKSNGTAGGNTFGSSS [YJL041W/NSP1] are within error of each other in protein stability index: 3.05 ± 0.085 for the first, 2.96 ± 0.055 for the second.

First: QTSVTTNFNEITNTDET [SWP82]
Second: QTYINQELGFCELLKLT [SSN2]
The protein stability index of the first is higher: 2.86 ± 0.042 for the first, 2.39 ± 0.17 for the second.

Going from QVEYALESISHAGTAIG [PRE9] to QVFSVKDSTAGKKVFET [YJR042W/NUP85], the protein stability index rises from 2.4 ± 0.082 to 3.09 ± 0.2.

Compared with QVGDGLEILIVTKDGVR [PRE7], QVLNRYTYSSTLSHLRR [RPB2] is lower in protein stability index: 2.92 ± 0.053 for the first, 2.77 ± 0.041 for the second.

Compared with QVLSQSADPSLLIDQFS [SWI1], QVQGQQQAQSFVGKKNT [SSN3] is lower in protein stability index: 3.02 ± 0.084 for the first, 2.57 ± 0.052 for the second.

QWFEAHYGQTLGKKKNV [RPS8A] and QYSLERNSPFWWTNSHH [PRP8] are within error of each other in protein stability index: 2.44 ± 0.027 for the first, 2.4 ± 0.057 for the second.

Compared with QYYRGLPLYEKNTLLER [SWP82], RAGVTIPSIPNPIANHT [SNF5] is lower in protein stability index: 3.13 ± 0.072 for the first, 2.43 ± 0.041 for the second.

First: RAKSCGVDAMSVDDLKK [RPL1A]
Second: RAKSSSHLFNEYSYVDS [RPN4]
The protein stability index of the first is lower: 2.69 ± 0.075 for the first, 3.25 ± 0.19 for the second.

Compared with RALQENGIIMNGTLIGC [YMR153W/NUP53], RAPELLLGARHYTPAVD [SSN3] is lower in protein stability index: 2.93 ± 0.13 for the first, 1.9 ± 0.3 for the second.

Going from RAQHVKKLATRPKCGDC [RPL34A] to RASDLRMTIRTRGRSAT [RRP43], the protein stability index falls from 2.69 ± 0.11 to 2.22 ± 0.17.

Going from RATNCRKRKCGHTNQLR [RPL40A] to RDIFQEDEENSDVLLFQ [RGR1], the protein stability index rises from 3.12 ± 0.048 to 3.4 ± 0.039.

Going from RDKAGRLAEVNLKDLNN [RPO21] to RDLGDDRVFNVPTIGVV [YJR042W/NUP85], the protein stability index rises from 2.55 ± 0.086 to 3.41 ± 0.19.

Going from RDVSDDVFDTLATYCPR [GRR1] to RDVYVFDKVEVQVRSVM [DIS3], the protein stability index rises from 3.05 ± 0.056 to 3.33 ± 0.052.

Going from REIQIDAVLKIFSFHQD [SRB8] to REKLAEVYKAEKDAVSV [RPS24A], the protein stability index rises from 3.06 ± 0.052 to 3.45 ± 0.054.

First: REKVRKLSQYVQEMALG [FAS2]
Second: REKYNMKGPAALWDVQF [ARP9]
The protein stability index of the first is lower: 3.15 ± 0.071 for the first, 3.49 ± 0.062 for the second.

Compared with RENVFFQSQQRRKDTSM [RPB9], REQYETQVALNESEKDQ [UBP6] is lower in protein stability index: 3.34 ± 0.065 for the first, 2.69 ± 0.067 for the second.

First: RERIRKGLQIYQSSVQE [PRP8]
Second: RESRIVSTEGNVPQTLA [RPL21A]
The protein stability index of the first is lower: 1.81 ± 0.24 for the first, 2.94 ± 0.1 for the second.

Compared with RGFFHLNEALLQCPMLY [CSN12], RGGFGGRNRGRPNRRGP [RPS2] is higher in protein stability index: 1.9 ± 0.13 for the first, 3.44 ± 0.077 for the second.

Going from RGREEAASFKKLYKTPI [PRE10] to RHLEKEGIIKPISKHSK [RPS25A], the protein stability index rises from 1.45 ± 0.2 to 2.96 ± 0.084.

Going from RIFAIAFTRKQANQVKR [RPS1A] to RIKLATTSERVSNENKK [RRI1], the protein stability index rises from 1.99 ± 0.031 to 2.94 ± 0.066.

Compared with RISGLIYEEVRAVLKSF [HHF1], RKANREEKLKANKEKKK [RPL24A] is lower in protein stability index: 3.16 ± 0.11 for the first, 2.15 ± 0.087 for the second.

Compared with RKDTVSREVLRYEEFAD [RPC40], RKFALEKLYIFYKLNMP [SRP72] is lower in protein stability index: 3.32 ± 0.082 for the first, 1.44 ± 0.085 for the second.

Compared with RKLFPNWIKPSDSEIPP [PRP8], RKPILLPDPKPLPLDLN [ITC1] is lower in protein stability index: 2.91 ± 0.069 for the first, 2.52 ± 0.065 for the second.

RKVVFPFQLDVADMLTP [UBP6] and RLECVKCKTRAQLTLKR [RPL42A] are within error of each other in protein stability index: 2.57 ± 0.078 for the first, 2.52 ± 0.14 for the second.

First: RLENKLSEIESLDEILL [SRP68]
Second: RLFIGDQNNKKMVGLRG [SNF2]
The protein stability index of the first is higher: 2.92 ± 0.11 for the first, 2.36 ± 0.1 for the second.

Going from RLKQVFNRALDQSISKL [NNF1] to RLLITGTPLQNNLHELW [ISW2], the protein stability index rises from 1.93 ± 0.043 to 2.99 ± 0.062.

First: RLNKLNSNGIAMASLYL [SMD1]
Second: RLSNEMHALKNRSEQNG [RGR1]
The protein stability index of the first is lower: 2.78 ± 0.065 for the first, 3.09 ± 0.16 for the second.

Compared with RLTGSLLAHKVADEEAN [RPC37], RNADELSSYQKKIIKCD [PRE5] is higher in protein stability index: 1.16 ± 0.12 for the first, 2.58 ± 0.086 for the second.

First: RNEKIAVHVTVRGPKAE [RPL11A]
Second: RNIILEARFDVLITSYE [ISW2]
The protein stability index of the first is lower: 1.93 ± 0.12 for the first, 2.41 ± 0.088 for the second.

Compared with RNMAEEFEYDDEPDEQG [CYT1], RNQEKKMEKKKSSSLSL [SNM1] is lower in protein stability index: 3.17 ± 0.064 for the first, 2.68 ± 0.22 for the second.

Compared with RPKCGDCGSALQGISTL [RPL34A], RPKKVKLEGSENSEPPA [SNF2] is higher in protein stability index: 1.32 ± 0.1 for the first, 3.33 ± 0.079 for the second.

First: RPNGRKDHDLKIPLPEV [POP1]
Second: RQFLKANKTNLIESLNT [YML103C/NUP188]
The protein stability index of the first is higher: 2.99 ± 0.073 for the first, 2.87 ± 0.047 for the second.

RQLTSMEFSNLYKEFFN [NUT1] and RQMKDVNAPLPTPFKVD [RPN2] are within error of each other in protein stability index: 2.85 ± 0.089 for the first, 2.79 ± 0.064 for the second.

Compared with RQPSLHKMSMMAHRVKV [RPO21], RQQAYKTAQTLDENLNS [YJL041W/NSP1] is higher in protein stability index: 2.81 ± 0.09 for the first, 3.12 ± 0.067 for the second.

RQQKLLLETKLRQQYEI [SWI1] and RQREMAEEQTKLQSQSL [YLR018C/POM34] are within error of each other in protein stability index: 3.17 ± 0.068 for the first, 3.11 ± 0.05 for the second.

Compared with RQYVGQLAPSSVDPQSS [DIS3], RREELQQRIREIGLLPE [SMC3] is higher in protein stability index: 2.92 ± 0.063 for the first, 3.21 ± 0.075 for the second.

Going from RRFNSSIGRTAQGKEFG [RPL17A] to RRGYQVYREVCAACHSL [CYT1], the protein stability index falls from 2.95 ± 0.098 to 1.47 ± 0.085.

Compared with RRILAAAAAAAAAVSGN [SSN3], RRLPEDESYARAYRIIR [QCR7] is higher in protein stability index: 1.06 ± 0.26 for the first, 2.53 ± 0.043 for the second.

Going from RRLPMTMFTAEQSELLK [SNF2] to RRRAFKRSQKKHKKKHL [RPB4], the protein stability index rises from 2.83 ± 0.053 to 3.13 ± 0.057.

First: RRRSSTNKSKRPSITEA [MED1]
Second: RSAWNNNNDNDANRNAN [GRR1]
The protein stability index of the first is higher: 2.87 ± 0.08 for the first, 2.62 ± 0.034 for the second.

RSDLQSKIQEIESIRSC [YIL149C/MLP2] and RSIRGSFTSQGTISIQL [MTR3] are within error of each other in protein stability index: 2.67 ± 0.099 for the first, 2.77 ± 0.066 for the second.

First: RSKFLSTVAKFLARVIK [IRR1]
Second: RSLASFEQTAFSRHAQQ [SIR4]
The protein stability index of the first is lower: 2.24 ± 0.11 for the first, 2.82 ± 0.05 for the second.

Compared with RSNFRVNLSQEALQYDP [SNU114], RSPRVVTNALDNIDEKV [NUT1] is lower in protein stability index: 2.93 ± 0.047 for the first, 2.77 ± 0.058 for the second.

RSSSASNEFVPNTSDNN [SWI1] showed a protein stability index of 2.69 ± 0.059.
